Positions count from the first letter of the chain named. In names and notes the source's numbering stands.
Legend:
human PDGF-BB [1] = target: T1, human PDGF-BB (human, UniProt P01127 82-190); assay: cell-based or functional assay
human PDGF-BB [2] = target: T1, human PDGF-BB; assay: SPR (Biacore 2000), antibody captured via anti-human IgG, PDGF injected
Procedure: (§1) Anti-human (A-D, I-K) or anti-mouse (E-H) IgG antibodies were immobilized in flow cells of CM5 sensor chips. 1 μg/mL of MOR8457-IKR-hIgG1-3m (A-D), MOR8457-mIgG1 (E-H) or MOR8457-GL-hIgG1-3m (I-K) was injected independently over the respective anti-human or anti-mouse surface for 10 seconds resulting in a stable anti-PDGF surface between 50-100 RU. Different concentration of PDGF proteins, 0.25, 0.5, and 1 nM, was then injected over the antibody surface for 2 minutes at a flow rate of 100 μl/min for binding. The complex was allowed to dissociate for 10 minutes. The surface was regenerated with a 30 second injection of 10 mM magnesium chloride leaving the surface ready for another round of anti-PDGF antibody capture and PDGF binding kinetics. Each of these three antibodies bound tightly to human (A, E, I), mouse (B, F, J) and rat (C, G, K) PDGF-BB. MOR8457-IKR-hIgG1-3m (D) and MOR8457-mIgG1 (H) bound to human PDGF-AB. Each sensorgram shown is one representative of three independent experiments.
(§2) In order to test the specificity and cross species reactivity, the binding affinities of three MOR8457 IgG variants, MOR8457-IKR-hIgG1-3m, MOR8457-mIgG1, and MOR8457-GL-hIgG1-3m, to different human PDGF ligands, including human PDGF-AA, -AB, -DD, as well as rat PDGF-BB (all obtained from R&D systems, Minneapolis, Minn.) and mouse PDGF-BB (Invitrogen, Carlsbad, Calif.) were tested. Briefly, anti-human or anti-mouse IgG (GE Healthcare) antibodies were immobilized in adjacent flow cells of a CM5 sensor chip between 8000-10,000 resonance units (RU) using amine coupling as directed by the manufacturer. Antibodies were diluted into PBS-NET (10 mM Phosphate pH 7.4, 287 mM NaCl, 2.7 mM KCl, 3.2 mM EDTA, 0.01% Tween 20) to 1 μg/mL and injected independently over the respective anti-human or anti-mouse surface for 10 seconds resulting in a stable anti-PDGF surface between 50-100 RU. PDGF proteins were diluted to 1 nM in PBS-NET and serially diluted two-fold to 0.25 nM. Each concentration of PDGF was then injected over the antibody surface for 2 minutes at a flow rate of 100 μl/min. The complex was allowed to dissociate for 10 minutes. The surface was regenerated with a 30 second injection of 10 mM magnesium chloride leaving the surface ready for another round of anti-PDGF antibody capture and PDGF binding kinetics.

mouse PDGF-BB [3] = target: T2, mouse PDGF-BB (mouse, UniProt P31240 82-190); assay: as above
T2 construct: also called muBB; Mu PDGF-BB
T2 sequence (P31240 82-190 limits assumed): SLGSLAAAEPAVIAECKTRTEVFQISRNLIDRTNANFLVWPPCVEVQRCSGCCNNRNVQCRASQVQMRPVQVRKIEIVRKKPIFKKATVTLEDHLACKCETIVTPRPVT
Procedure: as §1, §2

rat PDGF-BB [4] = target: T3, rat PDGF-BB (rat, UniProt Q05028 74-182); assay: as above
T3 construct: also called ratBB
T3 sequence (Q05028 74-182 limits assumed): as the sequence (P31240 82-190 limits assumed) above, with I83V, I102V counted along it
Procedure: as §1, §2

human PDGF-BB [5] = target: T1, human PDGF-BB; assay: SPR (Biacore 3000), antibody captured via anti-human IgG, PDGF injected
Procedure: (§3) FIG. 20, comprising panels A through D, depicts Biacore sensorgrams showing the binding kinetics of MOR8457-16 to different PDGF isoforms. MOR8457-16 was captured onto CM5 chips using an anti-human IgG antibody. The binding kinetics of each PDGF isoform was assessed by flowing different concentrations of each PDGF isoform over the captured MOR8457-16 surface. The concentrations of Hu-PDGF-BB (A) and Mu-PDGF-BB (C) were 0.25, 0.5, and 1 nM, and the concentrations for Hu-PDGF-AB (B) and Rat-PDGF-BB (D) were 0.5 and 1 nM. Each sensorgram is one representative of two independent experiments. Kinetics data were double referenced and fit using Biacore evaluation software version 4.1.
(§4) The binding affinities of MOR8457-16 to different PDGF isoforms were determined as previously described (Example 6) using a Biacore 3000 (GE Healthcare, Piscataway N.J.). Briefly, an anti-human IgG (GE Healthcare) antibody was immobilized in flow cells of a CM5 sensor chip between 8,000-10,000 resonance units (RU) using amine coupling as directed by the manufacturer. Test antibodies were diluted into PBS-NET (10 mM Phosphate pH 7.4, 287 mM NaCl, 2.7 mM KCl, 3.2 mM EDTA, 0.01% Tween-20) to 0.5 ug/mL and injected over the anti-human antibody surface for 30 seconds resulting in a stable anti-PDGF surface between 82-122 RU. PDGF proteins were diluted to 1 nM in PBS-NET and serially diluted two-fold to 0.25 nM. Each concentration of PDGF was then injected over the antibody surface for 2 minutes at a flow rate of 100 ul/min. The complex was allowed to dissociate for 10 minutes. The surface was regenerated with a 30 second injection of 3M magnesium chloride leaving the surface ready for another round of anti-PDGF antibody capture and PDGF binding kinetics. Kinetic data was double referenced (D. G. Myszka et al., J. Mol. Recognit. 12:279, 1999) using Scrubber2 software (Bio-Logic Software), then fit to a 1:1 binding model using Biacore evaluation software version 4.1. Protein concentrations of all PDGF isoforms were corrected with active concentrations determined under the condition of limiting mass transport (Karlsson et al., METHODS: A companion to Methods in Enzymology 6:99-110, 1994). Results shown were averages of two independent binding studies.

mouse PDGF-BB [6] = target: T2, mouse PDGF-BB; assay: as above
Procedure: as §3, §4

rat PDGF-BB [7] = target: T3, rat PDGF-BB; assay: as above
Procedure: as §3, §4

human PDGF-AB [8] = target: T4, human PDGF-AB (human, UniProt P04085 87-211, limits assumed); assay: as above
T4 construct: Heterodimer of PDGF-A and PDGF-B, bought; also called huAB; Hu PDGF-AB
T4 sequence (chain, as listed by the source limits assumed, chain 2 of 2, other chains not shown): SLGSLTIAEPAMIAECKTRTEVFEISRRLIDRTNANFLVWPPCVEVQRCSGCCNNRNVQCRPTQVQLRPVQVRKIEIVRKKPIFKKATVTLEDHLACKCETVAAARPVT
Procedure: as §3, §4

human PDGF-AB [9] = target: T4, human PDGF-AB; assay: SPR (Biacore)
Procedure: as §2, with “kinetics. […]” for “kinetics.”

human PDGF-AA = human PDGF-AA (human, UniProt P04085 87-211, limits assumed); assay: SPR (Biacore), antibody captured
Procedure: as §2, with “kinetics. Kinetic data were double referenced (Myszka et al., 1999, J. Mol. Recognit. 12 279) using scrubber2 software (Bio-Logic Software), then fit to a 1:1 binding model using Biacore evaluation software version 4.1. The results shown were an average of three independent binding studies.” for “kinetics.”

human PDGF-DD = human PDGF-DD (human, UniProt Q9GZP0 250-370, limits assumed); assay: SPR (Biacore), antibody captured
human PDGF-DD, sequence (Q9GZP0 250-370 limits assumed): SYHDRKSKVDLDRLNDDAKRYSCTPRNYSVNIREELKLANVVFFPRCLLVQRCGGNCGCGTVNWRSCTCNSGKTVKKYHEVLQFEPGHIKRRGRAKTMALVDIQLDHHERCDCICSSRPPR
Procedure: as §2, with “kinetics. Kinetic data were double referenced (Myszka et al., 1999, J. Mol. Recognit. 12 279) using scrubber2 software (Bio-Logic Software), then fit to a 1:1 binding model using Biacore evaluation software version 4.1. The results shown were an average of three independent binding studies.” for “kinetics.”

human PDGF-AB [10] = target: T4, human PDGF-AB; assay: SPR (Biacore 2000), antibody captured via anti-human IgG, PDGF injected
Procedure: as §1, §2

T1 sequence (P01127 82-190 limits assumed): as the sequence (chain, as listed by the source limits assumed, chain 2 of 2, other chains not shown) above

B1: MOR8457-GL-hIgG1-3m (antibody, V domains shown)
VH: EVQLLESGGGLVQPGGSLRLSCAASGFTFSSYAMSWVRQAPGKGLEWVSYISDDGSLKYYADSVKGRFTISRDNSKNTLYLQMNSLRAEDTAVYYCAKHPYWYGGQLDLWGQGTLVTVSS
VL: SYELTQPPSVSVSPGQTASITCSGDSLGSYFVHWYQQKPGQSPVLVIYDDSNRPSGIPERFSGSNSGNTATLTISGTQAMDEADYYCSAFTHNSDVFGGGTKLTVLG
notes: Germlined VH and VL, human IgG1-3m, wild type human lambda
B1 was tested, and the “IC50, inhibition of PDGF-BB (2.5 ng/ml) stimulated mesangial cell proliferation” value (human PDGF-BB [1]) was 0.02 nM, the Kd (human PDGF-BB [2]) was 0.013 nM and the koff (human PDGF-BB [2]) was 0.00019 s⁻¹. The kon (human PDGF-BB [2]) was 1.5e+07 M⁻¹ s⁻¹, the Kd (mouse PDGF-BB [3]) was 0.004 nM and the koff (mouse PDGF-BB [3]) was 0.0002 s⁻¹. It also gave a kon (mouse PDGF-BB [3]) of 5.3e+07 M⁻¹ s⁻¹, a Kd (rat PDGF-BB [4]) of 0.015 nM and a koff (rat PDGF-BB [4]) of 0.00024 s⁻¹. It also gave a kon (rat PDGF-BB [4]) of 1.7e+07 M⁻¹ s⁻¹.

B2: MOR8457-16 (antibody, human IgG1, lambda, V domains shown)
VH: B1 VH with E6Q, Q13K, K98R
VL: B1 VL with N52K
notes: Engineered variant of MOR8457-GL: heavy E6Q, Q13K; light N53K (Kabat); human IgG1-3m; also called MOR8547-16
With B2 the “IC50, inhibition of PDGF-BB (2.5 ng/ml) stimulated mesangial cell proliferation” value (human PDGF-BB [1]) was 0.014 nM, the Kd (human PDGF-BB [5]) was 0.00975 nM and the koff (human PDGF-BB [5]) was 0.000169 s⁻¹. For the same binder, the kon (human PDGF-BB [5]) was 1.73e+07 M⁻¹ s⁻¹, the Kd (mouse PDGF-BB [6]) was 0.00862 nM and the koff (mouse PDGF-BB [6]) was 0.00018 s⁻¹. It also gave a kon (mouse PDGF-BB [6]) of 2.16e+07 M⁻¹ s⁻¹, a Kd (rat PDGF-BB [7]) of 0.00888 nM and a koff (rat PDGF-BB [7]) of 0.000114 s⁻¹. For the same binder, the kon (rat PDGF-BB [7]) was 1.29e+07 M⁻¹ s⁻¹, the Kd (human PDGF-AB [8]) was about 0.00802 nM and the koff (human PDGF-AB [8]) was under 1e-05 s⁻¹. The kon (human PDGF-AB [8]) was 3.39e+06 M⁻¹ s⁻¹.

B3: MOR8457-IKR-hIgG1-3m (antibody)
heavy: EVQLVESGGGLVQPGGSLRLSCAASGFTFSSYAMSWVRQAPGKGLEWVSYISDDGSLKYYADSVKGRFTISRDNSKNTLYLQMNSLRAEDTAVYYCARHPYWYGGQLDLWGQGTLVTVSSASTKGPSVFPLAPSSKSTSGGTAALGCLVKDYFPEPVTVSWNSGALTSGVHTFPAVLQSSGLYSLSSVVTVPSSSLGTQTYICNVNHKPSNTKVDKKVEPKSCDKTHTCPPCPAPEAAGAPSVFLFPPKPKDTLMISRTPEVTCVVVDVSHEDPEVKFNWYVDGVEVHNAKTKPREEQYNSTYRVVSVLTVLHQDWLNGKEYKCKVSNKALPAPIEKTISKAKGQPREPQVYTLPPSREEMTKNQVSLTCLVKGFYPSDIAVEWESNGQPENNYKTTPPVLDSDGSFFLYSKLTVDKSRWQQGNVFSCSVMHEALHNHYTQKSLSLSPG
light: SYELTQPPSVSVAPGQTARISCSGDSLGSYFVHWYQQKPGQAPVLVIYDDSNRPSGIPERFSGSNSGNTATLTISGTQAEDEADYYCSAFTHNSDVFGGGTKLTIKRQPKAAPSVTLFPPSSEELQANKATLVCLISDFYPGAVTVAWKADSSPVKAGVETTTPSKQSNNKYAASSYLSLTPEQWKSHRSYSCQVTHEGSTVEKTVAPTECS
notes: also called MOR8457-IKR-IgG1-3m
For B3, the “fold reduction in binding against PDGF-BB” value (human PDGF-AB [9]) was about 3 fold, the “IC50, inhibition of PDGF-BB induced human mesangial cell proliferation (BrdU incorporation)” value (human PDGF-BB [1]) was 0.0134 nM and the binding result (human PDGF-AA) was “no binding (tested: 0.25-1 nM PDGF)”. The binding result (human PDGF-DD) was “no binding (tested: 0.25-1 nM PDGF)”, the Kd (human PDGF-BB [2]) was 0.028 nM and the koff (human PDGF-BB [2]) was 0.000362 s⁻¹. It also gave a kon (human PDGF-BB [2]) of 1.27e+07 M⁻¹ s⁻¹, a Kd (mouse PDGF-BB [3]) of 0.01 nM and a koff (mouse PDGF-BB [3]) of 0.000293 s⁻¹. It also gave a kon (mouse PDGF-BB [3]) of 2.95e+07 M⁻¹ s⁻¹, a Kd (rat PDGF-BB [4]) of 0.025 nM and a koff (rat PDGF-BB [4]) of 0.000447 s⁻¹. For the same binder, the kon (rat PDGF-BB [4]) was 1.77e+07 M⁻¹ s⁻¹, the Kd (human PDGF-AB [10]) was 0.069 nM and the koff (human PDGF-AB [10]) was 0.00045 s⁻¹. The kon (human PDGF-AB [10]) was 6.5e+06 M⁻¹ s⁻¹.

Source: patent US20140134176A1 (Pfizer, published 2014)
